One block for each molecule: values may come before it. Where no end group is shown, it is not given here.
How the values were obtained:
human TGR12 = target: T1, human TGR12 (Homo sapiens, UniProt Q96LB1); experiment: MAPK (ERK1/2) activation in human TGR12-expressed CHO cells (western blotting); format: cell-based; conditions: CHO-TGR12, PTX 0.1 μg/mL 4 hours before the assay
T1 construct: expressed in transfected cells
T1 sequence (Q96LB1 1-330): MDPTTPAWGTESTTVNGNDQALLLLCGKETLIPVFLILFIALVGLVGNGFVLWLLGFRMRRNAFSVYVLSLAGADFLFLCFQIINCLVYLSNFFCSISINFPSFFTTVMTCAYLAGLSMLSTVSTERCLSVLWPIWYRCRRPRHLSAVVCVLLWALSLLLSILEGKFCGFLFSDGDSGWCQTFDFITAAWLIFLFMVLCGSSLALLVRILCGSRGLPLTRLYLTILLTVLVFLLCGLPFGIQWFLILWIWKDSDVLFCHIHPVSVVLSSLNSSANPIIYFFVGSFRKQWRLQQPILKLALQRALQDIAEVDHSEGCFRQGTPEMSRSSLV
Experimental: CHO/dhfr^− cells (hereinafter CHO) were incubated in α-MEM (Invitrogen) containing 10% fetal calf serum. […] CHO-TGR12 was incubated in nucleic acid-free α-MEM (Invitrogen) containing 10% dialyzed fetal calf serum.
The cells were prepared as follows. […] After centrifugation, the deposited cells were suspended in the medium at 2×10^5 cells/ml and 1 mL each was plated in a 12-well cell culture dish. After incubation overnight in a CO2 incubator, the medium was aspirated and washed with PBS. […] Pertussis toxin (hereinafter PTX) was added at a final concentration of 0.1 μg/mL 4 hours before the assay.
Activation of the cells was performed as follows. The medium was aspirated and washed with PBS.
Detection by SDS-PAGE and western blotting was performed as follows. After resolving on a 10% Bis-Tris gel (Invitrogen), the proteins were transferred onto Immune-Blot PVDF membrane (BIO-RAD). The membrane was blocked in Block Ace (Dainippon Pharmaceutical), incubated at room temperature for an hour using a primary antibody (phospho-p42/p44 MAP kinase (Thr202/Thr204) antibody (CST) or p42/p44 MAP kinase antibody (CST)) and then incubated at room temperature for an hour using a secondary antibody (anti-rabbit IgG (CST)). The membrane after the antibody reaction was visualized by chemiluminescence with ECL PLUS (Amersham Biosciences), followed by detection and image analysis using LAS1000 (FUJI FILM).

human TGR12 (untagged) = target: T2, human TGR12 (untagged) (human, UniProt Q96LB1 1-330); experiment: cell-based or functional assay
T2 sequence: T1 sequence (Q96LB1 1-330)

[1] = target: T3, TGR12-GFP (fused protein of human TGR12 and GFP, encoded by the DNA of SEQ ID NO: 31), stably expressed on … (human, UniProt Q96LB1 1-330); experiment: cell-based or functional assay
T3 sequence: T1 sequence (Q96LB1 1-330)

[2] = target: T4, TGR12-GFP (fused protein of human TGR12 and GFP, encoded by the DNA of SEQ ID NO: 45), stably expressed on … (human, UniProt Q96LB1 1-330); experiment: competition with 200 pM [125I]-rCST14 (Y0) on CHO-TGR12GFP cells, Hill plot
T4 construct: also called TGR12-GFP expression CHO cell line; not shown: GFP (Wako Pure Chemical) fused after the C-terminus of TGR12
T4 sequence: T1 sequence (Q96LB1 1-330)
Experimental: The binding assay using CHO-TGR12GFP was performed as follows. […] After incubation overnight, the cells were washed 3 times with ice-chilled assay buffer (MEM-α, 20 mM HEPES (pH 7.4), 0.05% BSA) and 250 μL of the assay buffer was added thereto. […] After washing 3 times with 500 μL of the assay buffer, the cells were lysed in 250 μL of 0.5N NaOH and the lysate was recovered for measurement of the radioactivity.
Based on the above, non-specific binding was estimated as the activity of 10 μM rat cortistatin-14 and the IC₅₀ value of each peptide was obtained from Hill plot analysis.

Molecule: Pertussis toxin [PTX]
attenuation by pretreatment of phosphorylation of ERK1/2 with ATP (human TGR12): not observed
effect of pretreatment on phosphorylation of ERK1/2 by substance P (human TGR12): attenuated

EC50 in the degranulation on LAD 2 (human TGR12 (untagged)): ~105 nM
degranulation of LAD 2 (beta-hexosaminidase release, % of total) at 10 nM (human TGR12 (untagged)): 1.5%
degranulation of LAD 2 (beta-hexosaminidase release, % of total) at 30 nM (human TGR12 (untagged)): 4%
degranulation of LAD 2 (beta-hexosaminidase release, % of total) at 100 nM (human TGR12 (untagged)): 36.7%
degranulation of LAD 2 (beta-hexosaminidase release, % of total) at 300 nM (human TGR12 (untagged)): 63.9%
degranulation of LAD 2 (beta-hexosaminidase release, % of total) at 3 µM (human TGR12 (untagged)): 76.1%
EC50 in the calcium increasing effect on CHO-TGR12 [1]: ~305 nM
maximum activity in the calcium increasing effect (FLIPR), CHO-TGR12, at 0.3 nM [1]: 56 fluorescence intensity
maximum activity in the calcium increasing effect (FLIPR), CHO-TGR12, at 3 nM [1]: 60 fluorescence intensity
maximum activity in the calcium increasing effect (FLIPR), CHO-TGR12, at 30 nM [1]: 16 fluorescence intensity
maximum activity in the calcium increasing effect (FLIPR), CHO-TGR12, at 300 nM [1]: 11200 fluorescence intensity
maximum activity in the calcium increasing effect (FLIPR), CHO-TGR12, at 3000 nM [1]: 24000 fluorescence intensity
IC50 [2]: 2040 nM
B1: human VIP (vasoactive intestinal polypeptide) (peptide, UniProt P01282 125-152, looked up)
peptide: HSDAVFTDNYTRLRKQMAVKKYLNSILN
modifications: not fully specified; ends and bridges not checked
notes: domain: VIP; also called vasoactive intestinal peptide
